Experimental data published in US20170368119A1, “METHODS AND COMPOSITIONS FOR TREATING C-MET ASSOCIATED CANCERS” (YEASTERN BIOTECH CO., LTD, priority 2014, published 2017).

Columns and labels:
HCC329 [1] = assay: wound healing migration assay, HCC329; type: cell-based, human
Method: The HCC cells were cultivated on 24-well plates accompanied with a wound healing culture insert until confluence followed by serum starvation of the cells for 24 hours and the culture insert were then removed. After appropriate treatments, pictures were taken under a phase contrast microscope at indicated times.
Cell numbers were counted, and the relative doubling times of the respective treated groups were determined by taking the data of the untreated group as 100%. […] Relative migration was analyzed quantitatively by taking the motility of untreated cells (Con) as 1.0.

HCC329 [2] = assay: HCC329 tumor development and metastasis in SCID mice model; type: in vivo; conditions: JNJ 0.5-2.0 nmole/g mouse, intraperitoneal twice a week, 2 months
Method: HCC329 cells (approximately 2×10^7) suspended in 100 μl Dulbecco's Modified Eagle Medium (DMEM; Gibco, Grand Island, N.Y., USA) were directly injected into the subserosa of the middle liver lobe of the SCID mice, followed by intraperitoneal administration twice a week with DMEM as a vehicle, vehicle-containing FIP-gts (4.0-20 μg/g mouse) or JNJ (0.5-2.0 nmole/g mouse).
The mice were sacrificed 2 months after injection. Tumor mass was measured and the occurrence of intrahepatic metastasis and/or extrahepatic metastasis was recorded. Nodules with diameter of more than 0.1-0.2 cm observed on the left or right lobes were recognized as secondary tumor foci. […] Extra-hepatic metastasis was defined to be the case where the tumors appearing in organs other than liver such as in intestine. During the animal experiment, the regulations relevant to the care and use of laboratory animals were followed. This was approved by the Institutional Animal Care and Use Committee (IACUC) in Tzu Chi University (No. of consent form: 102080).

HCC372 [3] = assay: wound healing migration assay, HCC372; type: cell-based, human; conditions: JNJ 26.5 nM, 48 hours
Method: The HCC cells were cultivated on 24-well plates accompanied with a wound healing culture insert until confluence followed by serum starvation of the cells for 24 hours and the culture insert were then removed. After appropriate treatments, pictures were taken under a phase contrast microscope at indicated times. Quantitative analysis of motility of the HCC cell lines described in Example 1 was performed by directly counting the cells migrating into the blanking area at 48 hours using Image J. Software available from the NIH website. In general, motilities of the mesenchymal HCCs were higher than those of the epithelial ones.
The most motile HCC cell lines identified in Example 2, namely HCC372 and HCC329, were employed for testing the molecular and cellular effects of FIP-gts on HCC, in comparison with those of JNJ-38877605 (abbreviated hereafter as JNJ), which is an ATP-competitive inhibitor for the catalytic activity of c-Met. In the cell proliferation assay, HCC329 and HCC372 cells were untreated or treated with FIP-gts (prepared in Example 4) at 0.5, 1.0 or 2.0 μg/ml for 72 hours. Cell numbers were counted, and the relative doubling times of the respective treated groups were determined by taking the data of the untreated group as 100%. […] Relative migration was analyzed quantitatively by taking the motility of untreated cells (Con) as 1.0. […]

[4] = tested on: p-JNK, p-ERK, p-AKT, p-EGFR in HCC329; assay: immuno-blotting of signaling molecules, HCC329; type: cell-based, human; conditions: within 4 to 16 hours, data not shown
Description: To investigate the molecular mechanism of FIP-gts in suppression of tumor progression of HCCs, the effects of FIP-gts on the activity and/or quantity of the critical members present in c-Met dependent signaling pathway, including c-Met, phosphorylated c-Met (p-c-Met) and downstream effectors p-JNK and p-ERK, were examined in HCCs. […] Total proteins were harvested from the cells and subjected to immuno-blotting analysis using GAPDH as a loading control. Antibodies for p-c-Met, p-JNK, p-ERK and p-paxillin (S178), GAPDH and ERK were purchased from Santa Cruz Biotechnology (California, USA). The band intensities on the blots were quantified with Image J. Software. Relative band intensity of each molecule was calculated, taking the data of untreated HCC372 or HCC329 as 1.0.

[5] = tested on: c-Met, p-c-Met and p-JNK in HCC372; assay: western blotting of c-Met dependent signaling (Example 10), HCC372; type: cell-based, human; conditions: HCC372 (HGFR-positive)
Method: To investigate the molecular mechanism of FIP-gts in suppression of tumor progression of HCCs, the effects of FIP-gts on the activity and/or quantity of the critical members present in c-Met dependent signaling pathway, including c-Met, phosphorylated c-Met (p-c-Met) and downstream effectors p-JNK and p-ERK, were examined in HCCs. HCC329 and HCC372 cells were treated with FIP-gts (2 μg/ml) for 4 or 24 hours. Total proteins were harvested from the cells and subjected to immuno-blotting analysis using GAPDH as a loading control. Antibodies for p-c-Met, p-JNK, p-ERK and p-paxillin (S178), GAPDH and ERK were purchased from Santa Cruz Biotechnology (California, USA). The band intensities on the blots were quantified with Image J. Software. Relative band intensity of each molecule was calculated, taking the data of untreated HCC372 or HCC329 as 1.0. The results were shown in FIGS. 5A and 5B, in which (**) (##) and (*) (#) represent statistical significance (p<0.005 and p<0.05, respectively, n=3) between the indicated inhibitor-treated sample and untreated HCC329 or HCC372 control group.
The experiments described in Example 7 were repeated, except that FIP-gts was replaced with FIP-gmi, FIP-fve and FIP-vvo for treating HCC329 and HCC372. […] In addition, since c-Met was not substantially expressed in HCC329, the inhibitory effects of FIP-gmi, FIP-fve and FIP-vvo on HCC329 must be exerted through blockage on a c-Met independent signaling, such as EGFR-dependent signaling pathway.

HCC372 [6] = assay: MTT cell viability, HCC372; type: cell-based, human; conditions: 48 hours
Method: (§1) HCC372 and HCC329 cell lines established in Example 2 were cultured in 24-well plates at 1×10^5 cells/well in Dulbecco's Modified Eagle Medium (DMEM; Sigma, St. Louis, Mo., USA) supplemented with 1% heat-inactivated fetal bovine serum (FBS; Gibco, N.Y., USA) in the presence or absence of FIP-gmi, FIP-fve and FIP-vvo prepared in Example 4 at 1, 2.5 and 5 μg/ml for 48 hours. The supernatant was removed and 25 μl per well of 2.5 mg/ml MTT (3-[4,5-dimethylthiazol-2-yl]-2,5-dipheyltetrazolium bromide; Sigma Chemical Co., St. Louis, Mo., USA) in phosphate-buffered saline (PBS) was added. The plates were incubated at 37° C. for 1 hour to allow the transformation of MTT into water-insoluble formazan crystals. Then, the supernatant was removed and dimethyl sulfoxide (DMSO) was added to all wells and mixed thoroughly to dissolve the dark blue crystals. After a few minutes at room temperature to ensure that all crystals were totally dissolved, the plates were read at 570 nm. Relative survival rate was calculated by taking the number of untreated cells (Con) as 100%. The results are shown in FIGS. 6A and 6B, where the data were representative of 4 reproducible experiments.

HCC329 [7] = assay: MTT cell viability, HCC329; type: cell-based, human; conditions: 48 hours
Method: as §1

HCC329 [8] = assay: transwell migration assay, HCC329; type: cell-based, human; conditions: FIP-fve 10 μg/ml, 48 hours
Method: (§2) Further, the effects of the three FIPs on migration of both HCC cells were examined. HCC372 and HCC329 cells were seeded on a 24-well transwell migration insert (Nalge Nunc International Corp., Rochester, N.Y., USA) in a complete medium for 24 hours. After treatment with FIP-gmi (3 μg/ml), FIP-fve (10 μg/ml) and FIP-vvo (2.5 μg/ml) for 48 hours, cells that had migrated to the underside of the insert membrane were stained with 0.3% crystal violet. The cells on the topside of the insert membrane were rubbed with a cotton swab. The migrated cells on the underside were imaged using phase contrast microscopy with 200× magnification.

HCC372 [9] = assay: transwell migration assay, HCC372; type: cell-based, human; conditions: FIP-fve 10 μg/ml, 48 hours
Method: as §2

Molecule: Cn1cc(-c2ccc3nnc(C(F)(F)c4ccc5ncccc5c4)n3n2)cn1 [JNJ-38877605, reference compound]
- suppression of cell migration (HCC329 [1]; JNJ, 48 hours): 15%
- secondary tumors on liver lobes (intra-hepatic metastasis) (HCC329 [2]): secondary tumors were observed on left and right liver lobes
- tumor progression of HCC329 (HCC329 [2]): not prominent
- suppression of cell migration (HCC372 [3]): 50%

Molecule: Cc1cc(C)c(/C=C2\C(=O)Nc3ccccc32)[nH]1 [SU5416, reference compound]
- suppression of cell migration by EGFR inhibitors (HCC329 [1]; wound healing assays, data not shown): 80%
- reduction of the level of p-JNK by EGFR inhibitors [4]: 30%

B1: FIP-vvo: fungal immunomodulatory protein from Volvariella volvacea, SEQ ID NO: 3 (protein, listed as Volvariella volvacea)
chain: STDLTQLLFFIAYNLQKVNFDYTPQWQRGNPSSYIDAVVFPRVLTNKAYQYRVVTGDKDLGIKPSYSVQADGSQKVNLLEYNGGYGVADTTTIKIYVVDPSNGNQYLIAQWK
- effect on c-Met [5]: significantly suppressed
- effect on p-JNK [5]: significantly suppressed
- effect on p-c-Met [5]: significantly suppressed
- suppression of growth (MTT) (HCC372 [6]; 2.5 μg/ml): 48%
- suppression of growth (MTT) (HCC372 [6]; 5 μg/ml): 96%
- suppression of growth (MTT) (HCC329 [7]; 2.5 μg/ml): 54%
- suppression of growth (MTT) (HCC329 [7]; 5 μg/ml): 95%

B2: FIP-fve: fungal immunomodulatory protein from Flammulina veltipes, SEQ ID NO: 2 (protein)
chain: SATSLTFQLAYLVKKIDFDYTPNWGRGTPSSYIDNLTFPKVLTDKKYSYRVVVNGSDLGVESNFAVTPSGGQTINFLQYNKGYGVADTKTIQVFVVIPDTGNSEEYIIAEWKKT
modifications: Flammulina Velutipes
- effect on c-Met [5]: significantly suppressed
- effect on p-JNK [5]: significantly suppressed
- effect on p-c-Met [5]: significantly suppressed
- suppression of cell migration (transwell) (HCC329 [8]): marginally suppressed
- suppression of growth (MTT) (HCC372 [6]; 2.5 μg/ml): 13%
- suppression of growth (MTT) (HCC372 [6]; 5 μg/ml): 13%
- suppression of growth (MTT) (HCC329 [7]; 2.5 μg/ml): 18%
- suppression of growth (MTT) (HCC329 [7]; 5 μg/ml): 22%
- suppression of cell migration (transwell) (HCC372 [9]): marginally suppressed

B3: FIP-gmi: fungal immunomodulatory protein from Ganoderma microsporum, SEQ ID NO: 6 (protein, listed as Ganoderma microsporum)
chain: MSDTALIFTLAWNVKQLAFDYTPNWGRGRPSSFIDTVTFPTVLTDKAYTYRVVVSGKDLGVRPSYAVESDGSQKINFLEYNSGYGIADTNTIQVYVIDPDTGNNFIVAQWN
- effect on c-Met [5]: significantly suppressed
- effect on p-JNK [5]: significantly suppressed
- effect on p-c-Met [5]: significantly suppressed
- suppression of growth (MTT) (HCC372 [6]; 2.5 μg/ml): 23%
- suppression of growth (MTT) (HCC372 [6]; 5 μg/ml): 96%
- suppression of growth (MTT) (HCC329 [7]; 2.5 μg/ml): 23%
- suppression of growth (MTT) (HCC329 [7]; 5 μg/ml): 94%
